Reference: patent publication US20090022714A1, “Combination methods of inhibiting tumor growth with a vascular endothelial growth factor receptor antagonist” (ImClone Systems, Inc., priority 2001, published 2009)
Blank lines part the entries; values can stand above or below the molecule they belong to.

Assays:
KDR (VEGFR-2) [1] = target: T1, KDR (VEGFR-2) (Homo sapiens, UniProt P35968); assay: Quantitative KDR binding assay (chimeric IgG and scFv); design: the cDNA for KDR (VEGFR-2) extracellular domain is fused in-frame with the cDNA for human placental AP; made in house; host or cells: stably transfected NIH 3T3 cells, purified from supernatant on anti-AP antibody; settings: ELISA, FIG. 20
Protocol: Various amounts of antibodies were added to KDR (VEGFR-2)-coated 96-well Maxi-sorp microtiter plates (Nunc. Danmark) and incubated at room temperature for 1 h, after which the plates were washed 3 times with PBS containing 0.1% Tween-20. The plates were then incubated at RT for 1 h with 100 ul of mouse anti-E tag antibody-HRP conjugate (Pharmacia Biotech) for the scFv, or rabbit anti-human IgG Fc specific antibody-HRP conjugate (Cappel, Organon Teknika Corp.) for the chimeric IgG. The plates were washed 5 times, TMB peroxidase substrate (KPL, Gaithersburg, Md.) added, and the OD at 450 nm read using a microplate reader (Molecular Device, Sunnyvale, Calif.).
Target sequence in this assay (P35968 20-764 limits assumed): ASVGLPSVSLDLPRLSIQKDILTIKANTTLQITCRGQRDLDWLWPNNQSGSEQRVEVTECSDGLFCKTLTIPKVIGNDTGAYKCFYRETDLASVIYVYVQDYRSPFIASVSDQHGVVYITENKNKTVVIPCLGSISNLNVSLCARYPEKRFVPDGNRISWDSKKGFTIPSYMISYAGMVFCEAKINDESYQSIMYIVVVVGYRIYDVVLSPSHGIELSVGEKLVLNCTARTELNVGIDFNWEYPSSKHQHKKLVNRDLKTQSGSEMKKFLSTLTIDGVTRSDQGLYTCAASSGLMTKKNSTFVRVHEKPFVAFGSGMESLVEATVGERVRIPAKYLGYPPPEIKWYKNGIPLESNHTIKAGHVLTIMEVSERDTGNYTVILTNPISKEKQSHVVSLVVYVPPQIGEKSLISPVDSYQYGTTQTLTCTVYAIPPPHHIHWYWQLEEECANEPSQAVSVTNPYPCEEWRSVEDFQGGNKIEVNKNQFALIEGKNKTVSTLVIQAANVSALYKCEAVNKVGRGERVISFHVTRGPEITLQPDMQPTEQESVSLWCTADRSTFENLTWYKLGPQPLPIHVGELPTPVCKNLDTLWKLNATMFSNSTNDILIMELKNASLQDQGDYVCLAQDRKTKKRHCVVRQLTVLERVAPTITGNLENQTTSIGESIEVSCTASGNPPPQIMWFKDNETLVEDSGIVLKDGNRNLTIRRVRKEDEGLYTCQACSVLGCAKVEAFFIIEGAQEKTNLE

KDR (VEGFR-2) [2] = target: T1, KDR (VEGFR-2); assay: BIAcore analysis of p1C11 scFv, c-p1C11 and VEGF; format: binding; design: the cDNA for KDR (VEGFR-2) extracellular domain is fused in-frame with the cDNA for human placental AP; made in house; host or cells: stably transfected NIH 3T3 cells, purified from supernatant on anti-AP antibody; settings: BIAcore, Table 2
Protocol: The binding kinetics of antibodies to KDR (VEGFR-2) were measured using BIAcore biosensor (Pharmacia Biosensor). […] Sensorgrams were obtained at each concentration and were evaluated using a program, BIA Evaluation 2.0, to determine the rate constants kon and koff. Kd was calculated as the ratio of rate constants koff/kon.
Target sequence in this assay (P35968 20-764 limits assumed): as above

p44/p42 MAP kinases = assay: MAP kinase phosphorylation assay in HUVEC (chimeric IgG); format: cell-based, human
Protocol: (§1) Subconfluent HUVEC cells were grown in growth factor depleted EBM-2 medium for 24 to 48 h prior to experimentation. […] The cells were then lysed in lysis buffer ([…], 150 mM NaCl, 1% NP-40, 2 mM EDTA, 0.25% sodium deoxycholate, 1 mM PMSF, 1 μg/ml leupeptin, 1 μg/ml pepstatin, 10 μg/ml aprotinin, pH 7.5) and the cell lysate used for both the KDR (VEGFR-2) and MAP kinase phosphorylation assays. The KDR (VEGFR-2) receptor was immunoprecipitated from the cell lysates with Protein A Sepharose beads (Santa Cruz Biotechnology, Inc., CA) coupled to an anti-KDR (VEGFR-2) antibody, Mab 4.13 (ImClone Systems). Proteins were resolved with SDS-PAGE and subjected to Western blot analysis. To detect KDR (VEGFR-2) phosphorylation, blots were probed with an antiphosphotyrosine Mab, PY20 (ICN Biomedicals, Inc. Aurora, Ohio). For the MAP kinase activity assay, cell lysates were resolved with SDS-PAGE followed by Western blot analysis using a phospho-specific MAP kinase antibody (New England BioLabs, Beverly, Mass.). All signals were detected using ECL (Amersham, Arlington Heights, Ill.). In both assays, the blots were reprobed with a polyclonal anti-KDR (VEGFR-2) antibody (ImClone Systems) to assure that equal amount of protein was loaded in each lane of SDS-PAGE gels.

KDR (VEGFR-2) [3] = target: T1, KDR (VEGFR-2); assay: KDR phosphorylation assay in HUVEC (chimeric IgG); format: cell-based; design: endogenous in cells; host or cells: HUVEC, early passage
Protocol: as §1
Target sequence in this assay (P35968 20-1356): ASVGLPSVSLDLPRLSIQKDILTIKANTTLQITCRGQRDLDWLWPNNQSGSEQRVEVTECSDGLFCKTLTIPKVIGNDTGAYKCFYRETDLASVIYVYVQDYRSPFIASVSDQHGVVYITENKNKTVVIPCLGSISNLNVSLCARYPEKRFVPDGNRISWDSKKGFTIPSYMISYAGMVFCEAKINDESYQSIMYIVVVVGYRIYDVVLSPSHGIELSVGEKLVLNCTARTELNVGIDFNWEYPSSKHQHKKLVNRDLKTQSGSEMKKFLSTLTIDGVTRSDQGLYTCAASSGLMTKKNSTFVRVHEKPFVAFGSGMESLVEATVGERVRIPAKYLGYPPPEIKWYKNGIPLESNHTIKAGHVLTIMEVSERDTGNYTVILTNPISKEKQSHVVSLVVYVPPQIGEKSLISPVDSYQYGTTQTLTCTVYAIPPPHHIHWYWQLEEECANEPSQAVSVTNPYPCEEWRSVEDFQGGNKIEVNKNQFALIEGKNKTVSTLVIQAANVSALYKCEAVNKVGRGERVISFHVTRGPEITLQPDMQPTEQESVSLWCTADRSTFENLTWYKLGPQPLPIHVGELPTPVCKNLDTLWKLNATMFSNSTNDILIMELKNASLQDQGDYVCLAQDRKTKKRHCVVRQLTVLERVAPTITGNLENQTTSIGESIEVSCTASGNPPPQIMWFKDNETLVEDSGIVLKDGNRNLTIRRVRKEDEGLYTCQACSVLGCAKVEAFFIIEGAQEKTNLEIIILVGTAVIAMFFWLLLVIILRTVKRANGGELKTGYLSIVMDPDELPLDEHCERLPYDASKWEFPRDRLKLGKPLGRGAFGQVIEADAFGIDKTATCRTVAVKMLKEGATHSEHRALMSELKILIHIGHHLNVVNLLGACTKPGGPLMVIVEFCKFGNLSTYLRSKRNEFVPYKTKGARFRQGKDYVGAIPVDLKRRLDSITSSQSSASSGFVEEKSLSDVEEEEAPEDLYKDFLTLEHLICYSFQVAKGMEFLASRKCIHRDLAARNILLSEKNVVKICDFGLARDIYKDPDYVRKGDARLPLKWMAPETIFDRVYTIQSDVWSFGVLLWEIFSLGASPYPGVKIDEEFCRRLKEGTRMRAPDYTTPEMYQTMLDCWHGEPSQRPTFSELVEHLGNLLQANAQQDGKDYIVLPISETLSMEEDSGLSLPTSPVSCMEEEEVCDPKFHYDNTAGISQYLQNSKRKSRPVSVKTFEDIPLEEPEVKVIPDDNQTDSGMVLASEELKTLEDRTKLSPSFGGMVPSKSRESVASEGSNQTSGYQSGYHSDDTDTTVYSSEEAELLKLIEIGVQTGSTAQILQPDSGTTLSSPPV

[4] = target: T2, immobilized KDR (VEGFR-2) receptor (Homo sapiens, UniProt P35968); assay: Competitive VEGF binding assay, second assay (radiolabeled VEGF165 to immobilized KDR); settings: FIG. 23
T2 construct: the cDNA for KDR (VEGFR-2) extracellular domain is fused in-frame with the cDNA for human placental AP; human placental alkaline phosphatase (AP), inferred for these assays; made in house; host or cells: NIH 3T3 (inferred: the only KDR protein whose making is described)
T2 sequence (P35968 20-764 limits assumed): as the sequence (P35968 20-764 limits assumed) above

HUVEC = assay: Anti-mitogenic assay, [3H]-TdR, HUVEC (chimeric IgG and scFv); format: cell-based, human; settings: FIG. 24
Protocol: The effect of anti-KDR (VEGFR-2) antibodies on VEGF-stimulated mitogenesis of human endothelial cells was determined with a [^3H]-TdR DNA incorporation assay using HUVEC. […] After 18 hours of incubation, 0.25 μCi of [^3H]-TdR was added to each well and incubated for an additional 4 hours. DNA incorporated radioactivity was determined with a scintillation counter. The data shown in FIG. 24 are representative of at least three separate experiments.

[5] = target: T3, KDR (VEGFR-2) binding to VEGF (Homo sapiens, UniProt P35968); assay: Competitive VEGF binding assay, first assay (KDR-AP to immobilized VEGF165); settings: FIG. 22
T3 construct: the cDNA for KDR (VEGFR-2) extracellular domain is fused in-frame with the cDNA for human placental AP; made in house; host or cells: stably transfected NIH 3T3 cells, purified from supernatant on anti-AP antibody
T3 sequence (P35968 20-764 limits assumed): as above
Protocol: In the first assay, various amounts of antibodies were mixed with a fixed amount of KDR (VEGFR-2)-AP (50 ng) and incubated at room temperature for 1 h.

[6] = system: KDR (VEGFR-2)-expressing HUVEC; assay: FACS analysis of c-p1C11 on HUVEC; format: binding, human; settings: 5 μg/ml
Protocol: Early passage HUVEC cells were grown in growth factor-depleted EBM-2 medium overnight to induce the expression of KDR (VEGFR-2). The cells were harvested and washed three times with PBS, incubated with c-p1C11 IgG (5 μg/ml) for 1 h at 4° C., followed by incubation with a FITC labeled rabbit anti-human Fc antibody (Capper, Organon Teknika Corp., West Chester, Pa.) for an additional 60 min. The cells were washed and analyzed by a flow cytometer (Model EPICS®, Coulter Corp., Edison, N.J.).

[7] = system: KDR (VEGFR-2), KDR (VEGFR-2)(1-3), KDR (VEGFR-2)(3); assay: Binding epitope mapping with KDR Ig-domain deletion variants; design: species or system human
KDR (VEGFR-2), KDR (VEGFR-2)(1-3), KDR (VEGFR-2)(3), sequence (P35968 224-327 limits assumed): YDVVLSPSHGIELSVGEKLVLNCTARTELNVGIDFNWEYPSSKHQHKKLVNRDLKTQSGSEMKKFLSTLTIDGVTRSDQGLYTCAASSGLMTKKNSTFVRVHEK
Protocol: The production of KDR (VEGFR-2) extracellular Ig-like domain deletion variants has been previously described (Lu et al. (2000)). In an epitope-mapping assay, full length KDR (VEGFR-2)-AP, Ap fusions of two KDR (VEGFR-2) Ig-domain deletion variants, and Flk-1-AP were first immobilized onto a 96-well plate (Nunc) using a rabbit anti-AP antibody (DAKO-immunoglobulins, Glostrup, Denmark) as the capture reagent. The plate was then incubated with various anti-KDR (VEGFR-2) Fab proteins at RT for 1 h, followed by incubation with a rabbit anti-human Fab antibody-HRP conjugate. The plate was washed and developed as described above.

KDR (VEGFR-2) [8] = target: T1, KDR (VEGFR-2); assay: Direct binding assay of Fab to KDR; design: the cDNA for KDR (VEGFR-2) extracellular domain is fused in-frame with the cDNA for human placental AP; made in house; host or cells: stably transfected NIH 3T3 cells, purified from supernatant on anti-AP antibody
Protocol: In a direct binding assay, various amounts of soluble Fab proteins were added to KDR (VEGFR-2)-coated 96-well Maxi-sorp microtiter plates and incubated at RT for 1 h, after which the plates were washed 3 times with PBST. The plates were then incubated at RT for 1 h with 100 Φl of a rabbit anti-human Fab antibody-HRP conjugate (Jackson ImmunoResearch Laboratory Inc., West Grove, Pa.). The plates were washed and developed following the procedure described above for the phage ELISA. […] Absorbance at 405 nm was measured to quantify the bound KDR (VEGFR-2)-AP molecules (8).
Target sequence in this assay (P35968 20-764 limits assumed): as the sequence (P35968 20-764 limits assumed) above

KDR (VEGFR-2) [9] = target: T1, KDR (VEGFR-2); assay: BIAcore analysis of soluble Fab; format: binding; design: the cDNA for KDR (VEGFR-2) extracellular domain is fused in-frame with the cDNA for human placental AP; made in house; host or cells: stably transfected NIH 3T3 cells, purified from supernatant on anti-AP antibody; settings: mean±SE
Protocol: The binding kinetics of soluble Fab proteins to KDR (VEGFR-2) were measured by surface plasmon resonance using a BIAcore biosensor (Pharmacia Biosensor). KDR (VEGFR-2)-AP fusion protein was immobilized onto a sensor chip and soluble Fab proteins were injected at concentrations ranging from 1.5 nM to 100 nM. Sensorgrams were obtained at each concentration and were evaluated using a program, BIA Evaluation 2.0, to determine the rate constants kon and koff Kd was calculated from the ratio of rate constants koff/kon.
Target sequence in this assay (P35968 20-764 limits assumed): as above

koff (KDR (VEGFR-2) [2]): 0.52 10^−4 s^−1
kon (KDR (VEGFR-2) [2]): 0.63 10^5 M^−1s^−1
inhibition of FGF-stimulated activation of p44/p42 MAP kinases (p44/p42 MAP kinases; FGF 10 ng/ml, not shown): does not inhibit
inhibition of VEGF-stimulated activation of p44/p42 MAP kinases (p44/p42 MAP kinases; VEGF165 20 ng/ml): effectively inhibits
inhibition of VEGF-stimulated phosphorylation (activation) of KDR receptor (KDR (VEGFR-2) [3]; VEGF165 20 ng/ml): effectively inhibits
competition with 125I labeled VEGF for binding to immobilized KDR [4]: efficiently compete
B1: c-p1C11: chimeric p1C11 IgG1: p1C11 variable domains with human κ and γ1 constant regions (antibody, V domains shown)
VH: QVKLQQSGAELVGSGASVKLSCTTSGFNIKDFYMHWVKQRPEQGLEWIGWIDPENGDSDYAPKFQGKATMTADSSSNTAYLQLSSLTSEDTAVYYCNAYYGDYEGYWGQGTTVTVSS
VL: DIELTQSPAIMSASPGEKVTITCSASSSVSYMHWFQQKPGTSPKLWIYSTSNLASGVPARFSGSGSGTSYSLTISRMEAEDAATYYCQQRSSYPFTFGSGTKLEIK
direct binding to immobilized KDR (KDR (VEGFR-2) [1]): binds more efficiently to immobilized KDR (VEGFR-2) than the parent scFv
direct binding to immobilized KDR (KDR (VEGFR-2) [1]; listed as C-p1C11): bind more efficiently to immobilized KDR (VEGFR-2) receptor than the parent scFv
effect of antibody alone on activity of KDR receptor and p44/p42 MAP kinases (KDR (VEGFR-2) [3]; without VEGF): Neither c-p1C11, nor C225 alone has any effects
inhibitory effect on VEGF-stimulated mitogenesis of HUVEC (HUVEC): effectively inhibit mitogenesis of HUVEC stimulated by VEGF
blocking of KDR binding to immobilized VEGF [5]: block KDR (VEGFR-2) receptor from binding to immobilized VEGF in a dose-dependent manner
binding to KDR expressed on early passage HUVEC [6]: binds specifically to KDR (VEGFR-2) expressed on early passage HUVEC

efficiency of binding to KDR (KDR (VEGFR-2) [8]): more efficient binders
koff (KDR (VEGFR-2) [9]): 4.87 ± 0.18 10^−4 S^−1
kon (KDR (VEGFR-2) [9]): 12.4 ± 2.9 10^4 M^−1S^−1
B2: D2H2: human anti-KDR (VEGFR-2) VEGF-blocking Fab clone (antibody, V domains shown)
VH: EVQLVQSGGGLVKPGGSLRLSCAASGFTFSSYSMNWVRQAPGKGLEWVSSISSSSSYIYYADSVKGRFTISRDNAKDSLYLQMNSLRAEDTAVYYCARVTDAFDIWGQGTMVTVSS
VL: DIQLTQSPSSVSASVGDRVTITCRASQGISSRLAWYQQKPGKAPKLLIYAASSLQTGVPSRFSGSGSGTDFTLTISSLQPEDFATYYCQQANRFPPTFGPGTKVDIK
location of binding epitope(s) [7]: broader binding epitope(s) within KDR (VEGFR-2) Ig domains 1 to 3
